T1: BCMA on H929-Fluc-GFP cells (UniProt Q02223 1-184)
T1 sequence (looked up): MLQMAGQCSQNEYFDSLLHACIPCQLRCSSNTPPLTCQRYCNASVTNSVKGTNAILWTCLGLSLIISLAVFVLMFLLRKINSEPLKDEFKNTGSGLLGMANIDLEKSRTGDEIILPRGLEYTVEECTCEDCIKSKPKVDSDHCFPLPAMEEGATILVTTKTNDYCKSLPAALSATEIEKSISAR

T2: BCMA (BCMW37.DB.001) (UniProt Q02223 1-54, limits assumed)
T2 construct: The SPR antigen itself is named only by its batch label
T2 sequence (looked up): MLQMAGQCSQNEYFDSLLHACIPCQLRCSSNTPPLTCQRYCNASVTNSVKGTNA

B1: BCMB1055 (bispecific antibody, human IgG1, kappa, L234A L235A)
light: DIQMTQSPSSVSASVGDRVTITCKASQNVGTAVAWYQQKPGQSPKLLIYSASNRYTGVPSRFSGSGSGTDFTLTISSLQPEDFATYFCQQYGSSPWTFGGGTKVEIKRTVAAPSVFIFPPSDEQLKSGTASVVCLLNNFYPREAKVQWKVDNALQSGNSQESVTEQDSKDSTYSLSSTLTLSKADYEKHKVYACEVTHQGLSSPVTKSFNRGEC
heavy: QVQLVQSGAEVKKPGASVKVSCKASGYTFTNNVMHWVRQAPGQGLEWMGYILPYNDGTKYNQKFQGRVTLTSDKSASTAYMELSSLRSEDTAVYYCARYDYDGYFDYWGQGTTVTVSSASTKGPSVFPLAPSSKSTSGGTAALGCLVKDYFPEPVTVSWNSGALTSGVHTFPAVLQSSGLYSLSSVVTVPSSSLGTQTYICNVNHKPSNTKVDKKVEPKSCDKTHTCPPCPAPEAAGGPSVFLFPPKPKDTLMISRTPEVTCVVVSVSHEDPEVKFNWYVDGVEVHNAKTKPREEQYNSTYRVVSVLTVLHQDWLNGKEYKCKVSNKALPAPIEKTISKAKGQPREPQVYTLPPSREEMTKNQVSLSCAVKGFYPSDIAVEWESNGQPENNYKTTPPVLDSDGSFFLVSKLTVDKSRWQQGNVFSCSVMHEALHNRFTQKSLSLSPGK
chain: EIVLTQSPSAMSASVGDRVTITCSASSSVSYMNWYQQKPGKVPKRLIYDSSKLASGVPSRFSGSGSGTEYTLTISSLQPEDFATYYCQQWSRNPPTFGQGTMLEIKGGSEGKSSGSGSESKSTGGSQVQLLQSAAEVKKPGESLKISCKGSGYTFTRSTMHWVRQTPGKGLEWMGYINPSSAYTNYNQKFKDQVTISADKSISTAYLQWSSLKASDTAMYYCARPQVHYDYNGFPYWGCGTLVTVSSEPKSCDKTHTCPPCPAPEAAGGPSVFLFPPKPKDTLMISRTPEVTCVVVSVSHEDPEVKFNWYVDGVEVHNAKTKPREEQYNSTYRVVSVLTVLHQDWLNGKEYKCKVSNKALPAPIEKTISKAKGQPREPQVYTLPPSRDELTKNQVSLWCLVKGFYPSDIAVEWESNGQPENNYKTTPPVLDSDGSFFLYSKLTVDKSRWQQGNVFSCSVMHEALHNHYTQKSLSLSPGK
notes: Humanized anti-BCMA Fab × anti-CD3 scFv-Fc, knob-in-hole Fc; also called BCMB1055.001; BCMB749h × Cris7b scFv
B2: BCMB1050 (bispecific antibody, human IgG1, kappa, L234A L235A)
light: DIQMTQSPSSVSASVGDRVTITCKASQNVGTAVAWYQQKPGQSPKLLIYSASNRYTGVPSRFSGSGSGTDFTLTISSLQPEDFATYFCQQYGSSPWTFGGGTKVEIKRTVAAPSVFIFPPSDEQLKSGTASVVCLLNNFYPREAKVQWKVDNALQSGNSQESVTEQDSKDSTYSLSSTLTLSKADYEKHKVYACEVTHQGLSSPVTKSFNRGEC
heavy: QVQLVQSGAEVKKPGASVKVSCKASGYTFTNNVMHWVRQAPGQGLEWMGYILPYNDGTKYNQKFQGRVTLTSDKSASTAYMELSSLRSEDTAVYYCARYDYDGYFDYWGQGTTVTVSSASTKGPSVFPLAPSSKSTSGGTAALGCLVKDYFPEPVTVSWNSGALTSGVHTFPAVLQSSGLYSLSSVVTVPSSSLGTQTYICNVNHKPSNTKVDKKVEPKSCDKTHTCPPCPAPEAAGGPSVFLFPPKPKDTLMISRTPEVTCVVVSVSHEDPEVKFNWYVDGVEVHNAKTKPREEQYNSTYRVVSVLTVLHQDWLNGKEYKCKVSNKALPAPIEKTISKAKGQPREPQVYTLPPSREEMTKNQVSLSCAVKGFYPSDIAVEWESNGQPENNYKTTPPVLDSDGSFFLVSKLTVDKSRWQQGNVFSCSVMHEALHNRFTQKSLSLSPGK
chain: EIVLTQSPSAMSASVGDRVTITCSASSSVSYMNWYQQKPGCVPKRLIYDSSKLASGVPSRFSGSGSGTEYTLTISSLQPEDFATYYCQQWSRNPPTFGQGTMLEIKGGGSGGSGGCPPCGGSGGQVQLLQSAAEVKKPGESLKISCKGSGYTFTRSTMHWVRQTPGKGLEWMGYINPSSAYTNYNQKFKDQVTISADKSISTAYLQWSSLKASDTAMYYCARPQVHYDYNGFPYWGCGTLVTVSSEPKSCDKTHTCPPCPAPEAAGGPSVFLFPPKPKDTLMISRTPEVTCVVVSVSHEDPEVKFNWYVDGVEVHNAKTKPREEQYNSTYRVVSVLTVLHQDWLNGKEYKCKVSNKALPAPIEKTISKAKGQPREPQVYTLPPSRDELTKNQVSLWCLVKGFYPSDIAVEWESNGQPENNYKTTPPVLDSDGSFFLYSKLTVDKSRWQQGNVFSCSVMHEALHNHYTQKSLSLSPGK
notes: Humanized anti-BCMA Fab × stapled anti-CD3 scFv-Fc, knob-in-hole Fc; also called BCMB1050.001; BCMB749h × Cris7b spFv
B3: BCMB1052 (bispecific antibody, human IgG1, kappa, L234A L235A)
light: DIVMTQSQKFMSTTVGDRVSITCKASQNVGTAVAWYQQKPGQSPKLLIYSASNRYTGVPDRFTGTGSGTDFTLTIINVQSEDLADYFCQQYGSSPWTFGGGTKLEIKRTVAAPSVFIFPPSDEQLKSGTASVVCLLNNFYPREAKVQWKVDNALQSGNSQESVTEQDSKDSTYSLSSTLTLSKADYEKHKVYACEVTHQGLSSPVTKSFNRGEC
heavy: QVQLQQSGAELVKPGASVKLSCKASGYTFTNNVMHWVRQKPGQGLEWIGYILPYNDGTKYNEKFKGKATLTSDKSSSTAYMELSSLTSEDSAVYYCARYDYDGYFDYWGQGTTLTVSSASTKGPSVFPLAPSSKSTSGGTAALGCLVKDYFPEPVTVSWNSGALTSGVHTFPAVLQSSGLYSLSSVVTVPSSSLGTQTYICNVNHKPSNTKVDKKVEPKSCDKTHTCPPCPAPEAAGGPSVFLFPPKPKDTLMISRTPEVTCVVVSVSHEDPEVKFNWYVDGVEVHNAKTKPREEQYNSTYRVVSVLTVLHQDWLNGKEYKCKVSNKALPAPIEKTISKAKGQPREPQVYTLPPSREEMTKNQVSLSCAVKGFYPSDIAVEWESNGQPENNYKTTPPVLDSDGSFFLVSKLTVDKSRWQQGNVFSCSVMHEALHNRFTQKSLSLSPGK
chain: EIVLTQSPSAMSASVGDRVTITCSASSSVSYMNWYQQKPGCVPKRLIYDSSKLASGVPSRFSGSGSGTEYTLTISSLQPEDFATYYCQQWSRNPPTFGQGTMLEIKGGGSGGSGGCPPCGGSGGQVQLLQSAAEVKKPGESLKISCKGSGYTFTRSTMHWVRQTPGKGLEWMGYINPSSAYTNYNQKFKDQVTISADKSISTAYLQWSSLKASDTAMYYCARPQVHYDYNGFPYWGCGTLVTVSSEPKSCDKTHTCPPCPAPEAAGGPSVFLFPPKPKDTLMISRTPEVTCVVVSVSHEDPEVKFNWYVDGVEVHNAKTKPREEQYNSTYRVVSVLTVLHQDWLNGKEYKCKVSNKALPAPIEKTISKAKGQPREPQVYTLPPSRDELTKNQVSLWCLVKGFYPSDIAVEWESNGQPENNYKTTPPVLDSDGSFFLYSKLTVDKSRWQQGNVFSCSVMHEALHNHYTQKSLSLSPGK
notes: Murine anti-BCMA Fab × stapled anti-CD3 scFv-Fc, knob-in-hole Fc; also called BCMB1052.001; BCMB749 × Cris7b spFv
B4: BCMB1049 (bispecific antibody, human IgG1, kappa, L234A L235A)
light: DIQMTQSPSSVSASVGDRVTITCKASQNVGTAVAWYQQKPGQSPKLLIYSASNRYTGVPSRFSGSGSGTDFTLTISSLQPEDFATYFCQQYGSSPWTFGGGTKVEIKRTVAAPSVFIFPPSDEQLKSGTASVVCLLNNFYPREAKVQWKVDNALQSGNSQESVTEQDSKDSTYSLSSTLTLSKADYEKHKVYACEVTHQGLSSPVTKSFNRGEC
heavy: QVQLVQSGAEVKKPGASVKVSCKASGYTFTNNVMHWVRQAPGQGLEWMGYILPYNDGTKYNQKFQGRVTLTSDKSASTAYMELSSLRSEDTAVYYCARYDYDGYFDYWGQGTTVTVSSASTKGPSVFPLAPSSKSTSGGTAALGCLVKDYFPEPVTVSWNSGALTSGVHTFPAVLQSSGLYSLSSVVTVPSSSLGTQTYICNVNHKPSNTKVDKKVEPKSCDKTHTCPPCPAPEAAGGPSVFLFPPKPKDTLMISRTPEVTCVVVSVSHEDPEVKFNWYVDGVEVHNAKTKPREEQYNSTYRVVSVLTVLHQDWLNGKEYKCKVSNKALPAPIEKTISKAKGQPREPQVYTLPPSREEMTKNQVSLSCAVKGFYPSDIAVEWESNGQPENNYKTTPPVLDSDGSFFLVSKLTVDKSRWQQGNVFSCSVMHEALHNRFTQKSLSLSPGK
chain: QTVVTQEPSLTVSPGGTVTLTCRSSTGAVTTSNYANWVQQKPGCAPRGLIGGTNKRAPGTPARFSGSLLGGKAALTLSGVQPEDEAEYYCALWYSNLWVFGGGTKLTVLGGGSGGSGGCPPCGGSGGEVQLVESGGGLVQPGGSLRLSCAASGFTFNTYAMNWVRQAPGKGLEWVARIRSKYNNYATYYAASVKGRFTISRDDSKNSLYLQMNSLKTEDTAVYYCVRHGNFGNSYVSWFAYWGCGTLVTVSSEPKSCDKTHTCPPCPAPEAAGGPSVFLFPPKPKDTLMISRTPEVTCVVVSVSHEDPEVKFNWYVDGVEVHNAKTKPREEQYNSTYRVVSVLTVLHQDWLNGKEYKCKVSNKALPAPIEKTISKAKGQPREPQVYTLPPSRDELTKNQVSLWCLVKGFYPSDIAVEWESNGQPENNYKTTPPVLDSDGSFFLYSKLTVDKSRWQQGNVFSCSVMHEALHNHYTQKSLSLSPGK
notes: Humanized anti-BCMA Fab × stapled anti-CD3 (CD3B219) scFv-Fc, knob-in-hole Fc; also called BCMB1049.001; BCMB749h × CD3B219 spFv
B5: BCMB1051 (bispecific antibody, human IgG1, kappa, L234A L235A)
light: DIVMTQSQKFMSTTVGDRVSITCKASQNVGTAVAWYQQKPGQSPKLLIYSASNRYTGVPDRFTGTGSGTDFTLTIINVQSEDLADYFCQQYGSSPWTFGGGTKLEIKRTVAAPSVFIFPPSDEQLKSGTASVVCLLNNFYPREAKVQWKVDNALQSGNSQESVTEQDSKDSTYSLSSTLTLSKADYEKHKVYACEVTHQGLSSPVTKSFNRGEC
heavy: QVQLQQSGAELVKPGASVKLSCKASGYTFTNNVMHWVRQKPGQGLEWIGYILPYNDGTKYNEKFKGKATLTSDKSSSTAYMELSSLTSEDSAVYYCARYDYDGYFDYWGQGTTLTVSSASTKGPSVFPLAPSSKSTSGGTAALGCLVKDYFPEPVTVSWNSGALTSGVHTFPAVLQSSGLYSLSSVVTVPSSSLGTQTYICNVNHKPSNTKVDKKVEPKSCDKTHTCPPCPAPEAAGGPSVFLFPPKPKDTLMISRTPEVTCVVVSVSHEDPEVKFNWYVDGVEVHNAKTKPREEQYNSTYRVVSVLTVLHQDWLNGKEYKCKVSNKALPAPIEKTISKAKGQPREPQVYTLPPSREEMTKNQVSLSCAVKGFYPSDIAVEWESNGQPENNYKTTPPVLDSDGSFFLVSKLTVDKSRWQQGNVFSCSVMHEALHNRFTQKSLSLSPGK
chain: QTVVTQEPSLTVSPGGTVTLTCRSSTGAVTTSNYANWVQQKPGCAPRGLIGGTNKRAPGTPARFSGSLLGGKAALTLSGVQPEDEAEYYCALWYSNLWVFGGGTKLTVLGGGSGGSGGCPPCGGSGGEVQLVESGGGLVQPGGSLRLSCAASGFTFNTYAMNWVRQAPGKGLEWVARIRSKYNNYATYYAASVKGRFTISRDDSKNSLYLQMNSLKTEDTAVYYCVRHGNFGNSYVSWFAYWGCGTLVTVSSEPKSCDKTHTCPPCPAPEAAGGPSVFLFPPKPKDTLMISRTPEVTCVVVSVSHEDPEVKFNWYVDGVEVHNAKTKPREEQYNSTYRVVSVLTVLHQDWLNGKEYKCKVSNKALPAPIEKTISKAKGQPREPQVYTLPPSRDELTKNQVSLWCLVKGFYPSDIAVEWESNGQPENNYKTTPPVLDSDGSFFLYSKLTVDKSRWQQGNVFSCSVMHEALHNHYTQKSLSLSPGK
notes: Murine anti-BCMA Fab × stapled anti-CD3 (CD3B219) scFv-Fc, knob-in-hole Fc; also called BCMB1051.001; BCMB749 × CD3B219 spfv
B6: BCMB1056 (bispecific antibody, human IgG1, kappa, L234A L235A)
light: DIVMTQSQKFMSTTVGDRVSITCKASQNVGTAVAWYQQKPGQSPKLLIYSASNRYTGVPDRFTGTGSGTDFTLTIINVQSEDLADYFCQQYGSSPWTFGGGTKLEIKRTVAAPSVFIFPPSDEQLKSGTASVVCLLNNFYPREAKVQWKVDNALQSGNSQESVTEQDSKDSTYSLSSTLTLSKADYEKHKVYACEVTHQGLSSPVTKSFNRGEC
heavy: QVQLQQSGAELVKPGASVKLSCKASGYTFTNNVMHWVRQKPGQGLEWIGYILPYNDGTKYNEKFKGKATLTSDKSSSTAYMELSSLTSEDSAVYYCARYDYDGYFDYWGQGTTLTVSSASTKGPSVFPLAPSSKSTSGGTAALGCLVKDYFPEPVTVSWNSGALTSGVHTFPAVLQSSGLYSLSSVVTVPSSSLGTQTYICNVNHKPSNTKVDKKVEPKSCDKTHTCPPCPAPEAAGGPSVFLFPPKPKDTLMISRTPEVTCVVVSVSHEDPEVKFNWYVDGVEVHNAKTKPREEQYNSTYRVVSVLTVLHQDWLNGKEYKCKVSNKALPAPIEKTISKAKGQPREPQVYTLPPSREEMTKNQVSLSCAVKGFYPSDIAVEWESNGQPENNYKTTPPVLDSDGSFFLVSKLTVDKSRWQQGNVFSCSVMHEALHNRFTQKSLSLSPGK
chain: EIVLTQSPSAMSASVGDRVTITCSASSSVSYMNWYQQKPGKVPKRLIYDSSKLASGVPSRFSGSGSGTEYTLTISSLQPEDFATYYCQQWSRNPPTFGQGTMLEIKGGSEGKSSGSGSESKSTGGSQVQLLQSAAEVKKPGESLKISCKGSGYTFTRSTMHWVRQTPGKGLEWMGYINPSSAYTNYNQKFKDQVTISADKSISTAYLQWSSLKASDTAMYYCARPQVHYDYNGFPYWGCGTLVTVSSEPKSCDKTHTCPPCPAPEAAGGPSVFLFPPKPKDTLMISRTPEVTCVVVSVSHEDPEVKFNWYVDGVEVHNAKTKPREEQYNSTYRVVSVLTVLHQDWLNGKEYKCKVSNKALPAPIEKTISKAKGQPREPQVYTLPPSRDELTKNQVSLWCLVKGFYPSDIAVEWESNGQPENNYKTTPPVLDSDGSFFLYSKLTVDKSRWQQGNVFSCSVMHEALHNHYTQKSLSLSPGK
notes: Murine anti-BCMA Fab × anti-CD3 scFv-Fc, knob-in-hole Fc; also called BCMB1056.001; BCMB749 × Cris7b scFv

Columns and labels:
[1] = molecular target: CD3 on human donor Pan T cells (human); experiment: cell-based or functional assay
[2] = molecular target: T1, BCMA on H929-Fluc-GFP cells; experiment: cell-based or functional assay
CD3W220.001 = experiment: SPR, CD3 antigen CD3W220.001
BCMA (BCMW37.DB.001) = molecular target: T2, BCMA (BCMW37.DB.001); experiment: SPR, BCMA antigen BCMW37.DB.001

Chain of CD3 on human donor Pan T cells (human) (chain, as listed by the source): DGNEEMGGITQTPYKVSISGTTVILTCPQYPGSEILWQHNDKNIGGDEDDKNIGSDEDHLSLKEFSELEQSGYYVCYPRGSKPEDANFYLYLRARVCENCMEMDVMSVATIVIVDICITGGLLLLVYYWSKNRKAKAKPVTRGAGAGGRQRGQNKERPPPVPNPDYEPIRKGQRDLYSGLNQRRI

Binder	Bottom of fit, CD4/CD25+ T cell activation [1]	Bottom of fit, CD8/CD25+ T cell activation [1]	EC50 (nM), CD4/CD25+ T cell activation [1]	EC50 (nM), CD8/CD25+ T cell activation [1]	Top of fit (Cmax), CD4/CD25+ T cell activation [1]	Top of fit (Cmax), CD8/CD25+ T cell activation [1]	Bottom of fit, % Cytolysis [2]	EC50 (nM), % Cytolysis [2]	Top of fit (Cmax), % Cytolysis [2]	Kd (CD3W220.001)	koff (CD3W220.001)	kon (CD3W220.001)	Kd (BCMA (BCMW37.DB.001))	koff (BCMA (BCMW37.DB.001))	kon (BCMA (BCMW37.DB.001))
B1	7.46	0.97	0.0447 nM	0.0859 nM	87.4	81.2	16.1%	0.0301 nM	93.2%	746 nM	0.199 s⁻¹	267000 M⁻¹ s⁻¹	1.77 nM	0.0223 s⁻¹	1.26e+07 M⁻¹ s⁻¹
B2	8.05	1.32	0.0222 nM	0.0343 nM	86.4	80.1	17%	0.0141 nM	94.6%	657 nM	0.121 s⁻¹	184000 M⁻¹ s⁻¹	1.75 nM	0.021 s⁻¹	1.2e+07 M⁻¹ s⁻¹
B3	8.12	0.941	0.0627 nM	0.117 nM	80.9	73.5	15.4%	0.0489 nM	93.4%	502 nM	0.105 s⁻¹	210000 M⁻¹ s⁻¹	2.74 nM	0.039 s⁻¹	1.42e+07 M⁻¹ s⁻¹
B4	8.58	1.65	0.0409 nM	0.0744 nM	86.8	77	16.5%	~0.0348 nM	92.7%	23.6 nM	0.00205 s⁻¹	86900 M⁻¹ s⁻¹	1.59 nM	0.0219 s⁻¹	1.38e+07 M⁻¹ s⁻¹
B5	8.67	1.67	0.087 nM	0.144 nM	84.9	74	16.7%	0.0594 nM	92.4%	21.5 nM	0.00171 s⁻¹	79500 M⁻¹ s⁻¹	2.47 nM	0.0413 s⁻¹	1.67e+07 M⁻¹ s⁻¹
B6	8.29	1.42	0.105 nM	0.15 nM	82.7	75.3	17.2%	0.0758 nM	92.7%	951 nM	0.237 s⁻¹	249000 M⁻¹ s⁻¹	2.61 nM	0.0389 s⁻¹	1.49e+07 M⁻¹ s⁻¹

— US20250320304A1 (Janssen / Centocor, published 2025)
